Laboratory results published in paper PMC13454268 (Nature Communications, 2026).

Legend:
[1] = target: Prometheoarchaeum syntrophicum rubisco (Prometheoarchaeum syntrophicum); test: SEC-SAXS; 100 µl samples, 1-45 mg/ml rubisco incubated with or without CABP; Shodex KW804 column; 20 mM HEPES-OH pH 8.0, 300 mM NaCl, 10 mM MgCl2, 10 mM NaHCO3; 20 °C; molecular weight by volume of correlation
[2] = target: Thermodesulfobium acidiphilum form Iβ rubisco (Thermodesulfobium acidiphilum); test: as above
R. rubrum rubisco = target: T1, R. rubrum rubisco (Rhodospirillum rubrum, UniProt P04718); test: […]-CABP binding, liquid scintillation (active-site count); details: activated enzyme; labelled compound
T1 construct: gene cbbM; form II large subunit, L2 homodimer
T1 sequence (P04718 1-466): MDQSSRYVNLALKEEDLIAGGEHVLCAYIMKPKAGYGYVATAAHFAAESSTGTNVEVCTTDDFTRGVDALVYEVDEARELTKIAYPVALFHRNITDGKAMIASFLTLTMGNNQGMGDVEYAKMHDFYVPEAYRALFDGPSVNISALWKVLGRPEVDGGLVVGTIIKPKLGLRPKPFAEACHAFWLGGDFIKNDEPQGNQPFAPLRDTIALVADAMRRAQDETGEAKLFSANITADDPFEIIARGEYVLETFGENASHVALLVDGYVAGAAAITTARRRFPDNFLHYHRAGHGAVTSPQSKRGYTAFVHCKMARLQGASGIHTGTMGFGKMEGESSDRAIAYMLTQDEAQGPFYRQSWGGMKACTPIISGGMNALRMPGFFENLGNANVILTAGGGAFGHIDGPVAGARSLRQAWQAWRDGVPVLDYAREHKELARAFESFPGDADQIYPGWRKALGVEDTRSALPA

[3] = target: Fervidicoccus fontis form Iβ rubisco (Fervidicoccus fontis); test: SEC-SAXS; 100 µl samples, 1-45 mg/ml rubisco incubated with or without CABP; Shodex KW804 column; 20 mM HEPES-OH pH 8.0, 300 mM NaCl, 10 mM MgCl2, 10 mM NaHCO3; 20 °C; molecular weight by volume of correlation
[4] = target: Ammonifex degensii KC4 form Iβ rubisco (Ammonifex degensii KC4); test: as above
[5] = target: Rhodopseudomonas faecalis form II rubisco (Rhodopseudomonas faecalis); test: as above

## Prometheoarchaeum syntrophicum rubisco (enzyme)
[1]
  stoichiometry N: 2

## Thermodesulfobium acidiphilum form Iβ rubisco (enzyme)
[2]
  stoichiometry N: 2

## O=C(O)[C@@](O)(COP(=O)(O)O)[C@H](O)[C@H](O)COP(=O)(O)O [CABP]
R. rubrum rubisco
  14C-CABP binding, liquid scintillation (active-site count): An aliquot of activated R. rubrum was used for determination of rubisco active sites

## Fervidicoccus fontis form Iβ rubisco (enzyme)
[3]
  stoichiometry N: 2

## Ammonifex degensii KC4 form Iβ rubisco (enzyme)
[4]
  stoichiometry N: 2

## Rhodopseudomonas faecalis form II rubisco (enzyme)
[5]
  stoichiometry N: 6
